Data on 1 protein can be found in paper PMC8461876, “Automation assisted anaerobic phenotyping for metabolic engineering” (Microbial Cell Factories, 2021).

Substrate in the series: O=C1C=CCCC1
Put plainly: purified protein. Type of series: biochemical, Bacillus subtilis. The following applies: 0.15 mM NADPH, 40 mM HEPES pH 7.5, 35 °C, anaerobic (glucose oxidase/glucose), 15 nM enzyme.

B1: enoate reductase YqjM (Bs-YqjM) (Bacillus subtilis subsp. subtilis str. 168) (protein)
chain: MARKLFTPITIKDMTLKNRIVMSPMCMYSSHEKDGKLTPFHMAHYISRAIGQVGLIIVEASAVNPQGRITDQDLGIWSDEHIEGFAKLTEQVKEQGSKIGIQLAHAGRKAELEGDIFAPSAIAFDEQSATPVEMSAEKVKETVQEFKQAAARAKEAGFDVIEIHAAHGYLIHEFLSPLSNHRTDEYGGSPENRYRFLREIIDEVKQVWDGPLFVRVSASDYTDKGLDIADHIGFAKWMKEQGVDLIDCSSGALVHADINVFPGYQVSFAEKIREQADMATGAVGMITDGSMAEEILQNGRADLIFIGRELLRDPFFARTAAKQLNTEIPAPVQYERGW
notes: full gene, N-terminal 6xHis tag (p15TvL), tag cleavage not mentioned; expressed in E. coli LOBSTR BL21(DE3); FMN loaded
As for B1, the Km worked out at 350 ± 60 µM.

The term Km denotes the substrate concentration at which the rate is half of its maximum.
